# Results published in patent US20090191187A1.
# Target: human interleukin-1 receptor on cells (MRC-5 human embryonic lung fibroblasts; human blood cells) (human) (UniProt P14778)
# Assay: cell-based or functional assay
# Chain of human interleukin-1 receptor on cells (MRC-5 human embryonic lung fibroblasts; human blood cells) (human) (P14778 18-569): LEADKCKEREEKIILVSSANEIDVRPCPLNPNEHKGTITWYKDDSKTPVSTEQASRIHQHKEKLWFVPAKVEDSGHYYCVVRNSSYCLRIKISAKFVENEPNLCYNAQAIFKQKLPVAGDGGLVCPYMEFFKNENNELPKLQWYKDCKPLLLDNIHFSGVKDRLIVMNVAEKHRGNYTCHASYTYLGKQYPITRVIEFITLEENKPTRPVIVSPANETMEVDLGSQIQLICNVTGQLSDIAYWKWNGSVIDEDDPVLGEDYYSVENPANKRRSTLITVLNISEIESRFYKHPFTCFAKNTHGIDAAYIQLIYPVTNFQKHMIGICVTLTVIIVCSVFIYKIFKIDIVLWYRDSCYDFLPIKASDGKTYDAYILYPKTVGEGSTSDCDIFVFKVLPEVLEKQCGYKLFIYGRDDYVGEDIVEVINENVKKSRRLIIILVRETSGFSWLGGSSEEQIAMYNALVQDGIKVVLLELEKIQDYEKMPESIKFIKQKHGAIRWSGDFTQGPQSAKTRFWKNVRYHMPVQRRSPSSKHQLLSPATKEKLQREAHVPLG
row,IC-50 (MRC-5 bioassay),Substance
1,> 100 ng/mL,"Antigenix Cat.# MC260020, clone R11 (antibody)"
2,> 100 ng/mL,"Antigenix Cat.# MC261020, clone R12 (antibody)"
3,> 100 ng/mL,"BD Pharmingen Cat.# 551388, clone HIL1R-M1 (antibody)"
4,> 100 ng/mL,"Biotrend Cat.# 0100-0242, clone 49/20 (antibody)"
5,> 100 ng/mL,"Cell Sciences Cat.# CM2028, clone RMHL-1 (antibody)"
6,33 ng/mL,"PBL Biomedical Laboratories Cat.# 21808-1, clone RMH1R-1 (antibody)"
7,> 100 ng/mL,"PBL Biomedical Laboratories Cat.# 21809-1, clone RMH1R-2 (antibody)"
8,> 100 ng/mL,"R&D Systems Cat.# MAB269, clone 35730 (antibody)"
